EP4585616A1, “ANTIBODY CAPABLE OF SPECIFICALLY BINDING TO ROR1, […] THEREOF, AND PREPARATION METHOD THEREFOR AND USE THEREOF” (Hefei Institutes of Physical Science, Chinese Academy of …, priority 2022, dated 2024)
Substitutions are numbered along the chain they refer to.

B1: mAb001 (antibody, IgG2b, V domains shown)
VH: EVRLQQSGPVLVKPGASVKMSCKASGYTFTDYNLHWVKQSHRQSLEWIGYINPNHDGTSYNQKFQGKATLTVDRSSSTAYMEFRSLTSEDSAVYYCARRVRTGTGLDDWGQGTTLTVSS
VL: DVLMTQSPLSLPVSLGDQASISCRSSHNIVHTNGNTYLEWYLQKPGQSPKLLIYKVSNRFSGVPDRFSGSGSGTYFTLTISRVEAEDLGVYYCFQGSRFPYTFGGGTKLEIK
notes: Mouse monoclonal antibody, IgG2b/k
B2: mAb007 (antibody, IgG2b, V domains shown)
VH: EVQLQQSGPELVKPGASVKMSCKASGYTFTDYNMHWVKQSHGKSLEWIGYINPNNGGTSYNQKFKGKATLTVNKSSSTAYMELRSLTSDDSAVYYCARRGYGSGYAMDYWGQGTSVTVSS
VL: B1 VL with S7T, H27Q, N28S, K44N, S57F, Y75D, T79K, R98L
notes: as for B1
B3: mAb006 (antibody, IgG2b, V domains shown)
VH: B2 VH with V18L, T30P, M34I, S59T, N73S, D89E, Y95S, G104S, G111A
VL: B1 VL with N28I, Y75D, T79K, F99V
notes: as for B1
B4: mAb009 (antibody, IgG2b, V domains shown)
VH: EVQLQQSGPELVKPGASLKLSCKASGYTFPDYNIHWVKQSHGKSLEWIGYINPNNGNTNYNQKFEGKATLTVSKSSSTAYMELRSLTSDDSAVYSCARRGYGSSYAMDFWGQGTSVTVSS
VL: B1 VL with S7T, D17N, N28I, Y75D, T79K, F99V
notes: as for B1
B5: mAb008 (antibody, IgG2b, V domains shown)
VH: B2 VH with G26E, S59T, T114A
VL: B1 VL with M4L, S7T, Q18R, R24T, H27Q, N28S, K44N, Y75D, T79K, R98L
notes: as for B1
B6: mAb001c_v1 (antibody, IgG1, V domains shown)
VH: B1 VH with G57A
VL: B1 VL with G34A
notes: Chimeric mutant in hIgG1,k vector; the entries already hold the site-directed changes; also called human-mouse chimeric antibody mutant of mAb001c; site-directed mutant of mAb001c
B7: Hu005-46 (antibody, V domains shown)
VH: EVQLVESGGGLVKPGGSLRLSCAASGFTFNSYAMSWVRQTPGKRLEWVATISDAGSYTYYPDNEKGRFTISRDNAKNSLYLQMNSLRAEDTAIYYCVRGGYYYNLYAMDYWGQGTLVTVSS
VL: DIVLTQSPDSLAVSLGERATINCKASQSVSFPGTSLMHWYQQKPGQQPKLLIYRASNLEAGVPDRFSGSGSRTDFTLTISSLQAEDVAVYYCQQSREYPWTFGGGTKVEIK
notes: Humanized
B8: mAb005 (antibody, IgG2b, V domains shown)
VH: B7 VH with R19K, G42E, A54G, S78N, N84S, S85H, R87K, A88S, L116S
VL: DIVLTQSPASLAVSLGQRAIISCKASQSVSFPGTSLMHWYQQKPGQQPKLLIYRASNLEAGVPTRFSGSGSRTDFTLNIHPVEEDDTATYYCQQSREYPWTFGGGTQLEIK
notes: as for B1
B9: Hu005-46-MMAE (antibody, human IgG1, DAR about 4.07, V domains shown)
VH: B7 VH
VL: B7 VL
modifications: vcMMAE on cysteines after TCEP reduction, positions not given
notes: Antibody-drug conjugate of Hu005-46 (human IgG1, Kappa) with vcMMAE
B10: Hu005-40 (antibody, V domains shown)
VH: B7 VH with G42E, R44G, S78N
VL: B7 VL
notes: Humanized
B11: Hu005-43 (antibody, V domains shown)
VH: B7 VH with R44G, S78N
VL: B7 VL
notes: Humanized
B12: Hu005-44 (antibody, V domains shown)
VH: B7 VH with R44G
VL: B7 VL
notes: Humanized
B13: Hu005-35 (antibody, V domains shown)
VH: B7 VH with G42E, S78N
VL: B7 VL
notes: Humanized
B14: Hu005-45 (antibody, V domains shown)
VH: B7 VH with G42E, R44G
VL: B7 VL
notes: Humanized
B15: mAb003 (antibody, IgG2c, V domains shown)
VH: EVQLVESGGGLVKPGGSLKLSCAASGFTFSSYAMSWVRQTPEKRLEWVATISDGGSYTYYPDSVKGRFTISRDNAKNNLYLQMSHLKSEDTDMYYCVRGGYYYNLYAMDYWGQGTSVTVSS
VL: B8 VL with P32A, T73A, T87A, R96G, Q107K
notes: Mouse monoclonal antibody, IgG2c/k
B16: Hu005-42 (antibody, V domains shown)
VH: B7 VH with G42E
VL: B7 VL
notes: Humanized
B17: mAb005c_v1 (antibody, IgG1, V domains shown)
VH: B15 VH with S30N, G54A, S63N, V64E, D92A, M93I
VL: B8 VL
notes: Chimeric mutant in hIgG1,k vector; the VH entry already holds the site-directed change; also called human-mouse chimeric antibody mutant of mAb005c; site-directed mutant of mAb005c
B18: Hu005-44-MMAE (antibody, human IgG1, DAR about 4.12, V domains shown)
VH: B7 VH with R44G
VL: B7 VL
modifications: vcMMAE on cysteines after TCEP reduction, positions not given
notes: Antibody-drug conjugate of Hu005-44 (human IgG1, Kappa) with vcMMAE
B19: Hu005-41 (antibody, V domains shown)
VH: B7 VH with S78N
VL: B7 VL
notes: Humanized
B20: Hu001-05 (antibody, V domains shown)
VH: QVQLVQSGAEVKKPGASVKVSCKASGYTFTDYNLHWVRQAPGQGLEWMGYINPNHDATSYNQKFQGKVTMTVDTSTSTVYMELSSLRSEDTAVYYCARRVRTGTGLDDWGQGTTVTVSS
VL: DVVMTQSPLSLPVTLGQPASISCRSSHNIVHTNANTYLEWYQQRPGQSPRLLIYKVSNRFSGVPDRFSGSGSGTDFTLKISRVEAEDVGVYYCFQGSRFPYTFGGGTKVEIK
notes: Humanized; also called Hu001-5
B21: Hu001-03 (antibody, V domains shown)
VH: B20 VH with K67R, V72R
VL: B20 VL with R50K
notes: Humanized; also called Hu001-3
B22: Hu001-14 (antibody, V domains shown)
VH: B20 VH with R38K, M48I, V68A, M70L, V79A, R87T
VL: B20 VL
notes: Humanized
B23: Hu001-08 (antibody, V domains shown)
VH: B20 VH with R38K, M48I
VL: B20 VL
notes: Humanized; also called Hu001-8
B24: Hu001-2-MMAE (antibody, human IgG1, DAR about 4.15, V domains shown)
VH: B20 VH with K67R, V72R
VL: B20 VL
modifications: vcMMAE on cysteines after TCEP reduction, positions not given
notes: Antibody-drug conjugate of Hu001-2 (human IgG1, Kappa) with vcMMAE
B25: Hu001-06 (antibody, V domains shown)
VH: B20 VH
VL: B20 VL with R50K
notes: Humanized; also called Hu001-6
B26: Hu001-11 (antibody, V domains shown)
VH: B20 VH with R38K, M48I, V68A, M70L
VL: B20 VL
notes: Humanized
B27: Hu001-02 (antibody, V domains shown)
VH: B20 VH with K67R, V72R
VL: B20 VL
notes: Humanized; also called Hu001-2
B28: Hu001-15 (antibody, V domains shown)
VH: B20 VH with R38K, M48I, V68A, M70L, V79A, R87T
VL: B20 VL with R50K
notes: Humanized
B29: Hu001-3-MMAE (antibody, human IgG1, DAR about 4.15, V domains shown)
VH: B20 VH with K67R, V72R
VL: B20 VL with R50K
modifications: vcMMAE on cysteines after TCEP reduction, positions not given
notes: Antibody-drug conjugate of Hu001-3 (human IgG1, Kappa) with vcMMAE
B30: Hu001-12 (antibody, V domains shown)
VH: B20 VH with R38K, M48I, V68A, M70L
VL: B20 VL with R50K
notes: Humanized
B31: mAb004 (antibody, IgG2b, V domains shown)
VH: EVQLVESGGGLVQPKGSLKLSCAASGFTFNTYAMHWVRQAPGKGLEWVARIRSKSSNFATYYADSVRDRFTISRDDSQSMLYLQMNNLKTEDTAMYYCVRGYGPSYFSLDYWGQGTSVTVSS
VL: DVVMTQTPLSLPVSLGDQASISCRSSQSLVHSNGNTYLHWYLQKPGQSPKLLIYKVSNRFSGVPDRFSGSGSGTDFTLKINRVEAEDLGVYFCSQSTHAIYTFGGGTKLEIK
notes: as for B1

biological target: T1, human ROR1 on the surface of tumor cells (human, UniProt Q01973 30-937); assay: FACS, MDA-MB-231 cells
T1 construct: whole, on cells; also called ROR1 on the cell surface; tumor cell ROR1
T1 sequence (Q01973 30-937): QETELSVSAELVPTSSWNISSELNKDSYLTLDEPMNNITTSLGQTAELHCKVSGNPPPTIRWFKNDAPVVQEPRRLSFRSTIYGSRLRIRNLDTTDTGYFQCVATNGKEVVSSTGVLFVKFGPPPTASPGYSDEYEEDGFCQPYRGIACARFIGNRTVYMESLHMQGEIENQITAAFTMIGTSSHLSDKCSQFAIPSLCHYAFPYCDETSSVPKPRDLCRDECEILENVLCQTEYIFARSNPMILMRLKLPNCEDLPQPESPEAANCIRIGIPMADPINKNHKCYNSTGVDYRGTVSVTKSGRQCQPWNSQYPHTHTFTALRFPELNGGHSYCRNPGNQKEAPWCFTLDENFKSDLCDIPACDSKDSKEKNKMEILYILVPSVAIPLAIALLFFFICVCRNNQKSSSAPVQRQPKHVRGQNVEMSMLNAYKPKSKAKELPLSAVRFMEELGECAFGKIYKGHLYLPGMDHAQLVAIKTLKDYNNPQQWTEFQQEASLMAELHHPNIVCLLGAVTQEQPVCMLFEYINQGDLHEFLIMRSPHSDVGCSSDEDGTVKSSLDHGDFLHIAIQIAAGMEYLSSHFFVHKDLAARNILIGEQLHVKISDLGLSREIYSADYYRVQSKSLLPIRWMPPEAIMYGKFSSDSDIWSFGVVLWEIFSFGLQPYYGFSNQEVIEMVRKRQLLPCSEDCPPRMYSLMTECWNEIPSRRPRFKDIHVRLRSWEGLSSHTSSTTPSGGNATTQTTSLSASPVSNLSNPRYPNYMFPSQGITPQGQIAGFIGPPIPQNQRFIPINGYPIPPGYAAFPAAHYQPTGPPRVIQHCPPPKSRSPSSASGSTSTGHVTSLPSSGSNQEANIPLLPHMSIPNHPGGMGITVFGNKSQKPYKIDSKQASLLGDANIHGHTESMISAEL

Question: With B1 as the binder, how does the EC50 read?
Answer: 0.073 nM

Question: Which EC50 does the source give for B2 here?
Answer: 0.15 nM

Question: How did the EC50 turn out when B3 was run?
Answer: 0.19 nM

Question: With B4 as the binder, how does the EC50 read?
Answer: 0.16 nM

Question: B5 was tested. Which EC50 did it give?
Answer: 0.11 nM

Question: For B6, which EC50 is on record?
Answer: 0.073 nM

Question: Does B7 bind?
Answer: binds

Question: B8 was tested. Which EC50 did it give?
Answer: 0.16 nM

Question: Does B9 bind?
Answer: binds

Question: Does B10 bind?
Answer: binds

Question: Does B11 bind?
Answer: binds

Question: Does B12 bind?
Answer: binds

Question: Does B13 bind?
Answer: binds

Question: Does B14 bind?
Answer: binds

Question: How did the EC50 turn out when B15 was run?
Answer: 0.45 nM

Question: Does B16 bind?
Answer: binds

Question: With B17 as the binder, how does the EC50 read?
Answer: 0.067 nM

Question: Does B18 bind?
Answer: binds

Question: Does B19 bind?
Answer: binds

Question: Does B20 bind?
Answer: binds

Question: Does B21 bind?
Answer: binds

Question: Does B22 bind?
Answer: binds

Question: Does B23 bind?
Answer: binds

Question: Does B24 bind?
Answer: binds

Question: Does B25 bind?
Answer: binds

Question: Does B26 bind?
Answer: binds

Question: Does B27 bind?
Answer: binds

Question: Does B28 bind?
Answer: binds

Question: Does B29 bind?
Answer: binds

Question: Does B30 bind?
Answer: binds

Question: For B31, which EC50 is on record?
Answer: 0.15 nM

biological target: T2, Extracellular domain of human ROR1 protein (ROR1-ECD) (human, UniProt Q01973 30-403); assay: ELISA, purified ROR1-ECD
T2 construct: Expressed in HEK293T cells; also called human ROR1-ECD; purified human ROR1 protein extracellular segment
T2 sequence (Q01973 other isoform, or with tags, fused parts or gaps): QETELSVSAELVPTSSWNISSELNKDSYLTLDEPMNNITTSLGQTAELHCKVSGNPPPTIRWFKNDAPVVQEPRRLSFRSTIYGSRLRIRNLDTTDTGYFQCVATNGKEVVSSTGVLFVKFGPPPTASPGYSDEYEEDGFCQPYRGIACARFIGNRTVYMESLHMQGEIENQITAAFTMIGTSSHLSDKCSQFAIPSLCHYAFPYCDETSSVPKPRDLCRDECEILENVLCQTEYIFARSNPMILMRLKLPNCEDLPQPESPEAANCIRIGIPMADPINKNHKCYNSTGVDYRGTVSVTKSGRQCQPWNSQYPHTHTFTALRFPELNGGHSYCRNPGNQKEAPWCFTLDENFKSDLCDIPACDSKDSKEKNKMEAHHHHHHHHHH

Question: Which EC50 does the source give for B1 here?
Answer: 0.049 nM

Question: With B2 as the binder, how does the EC50 read?
Answer: 0.066 nM

Question: For B3, which EC50 is on record?
Answer: 0.059 nM

Question: How did the EC50 turn out when B4 was run?
Answer: 0.062 nM

Question: With B5 as the binder, how does the EC50 read?
Answer: 0.053 nM

Question: Which EC50 does the source give for B8 here?
Answer: 0.043 nM

Question: With B15 as the binder, how does the EC50 read?
Answer: 0.023 nM

Question: With B31 as the binder, how does the EC50 read?
Answer: 0.038 nM

biological target: T2, Extracellular domain of human ROR1 …; assay: ELISA, plate-coated ROR1-ECD

Question: B6 was tested. Which EC50 did it give?
Answer: 0.028 nM

Question: Does B7 bind?
Answer: binds

Question: Does B9 bind?
Answer: binds

Question: Does B10 bind?
Answer: binds

Question: Does B11 bind?
Answer: binds

Question: Does B12 bind?
Answer: binds

Question: Does B13 bind?
Answer: binds

Question: Does B14 bind?
Answer: binds

Question: Does B16 bind?
Answer: binds

Question: How did the EC50 turn out when B17 was run?
Answer: 0.046 nM

Question: Does B18 bind?
Answer: binds

Question: Does B19 bind?
Answer: binds

Question: Does B20 bind?
Answer: binds

Question: Does B21 bind?
Answer: binds

Question: Does B22 bind?
Answer: binds

Question: Does B23 bind?
Answer: binds

Question: Does B24 bind?
Answer: binds

Question: Does B25 bind?
Answer: binds

Question: Does B26 bind?
Answer: binds

Question: Does B27 bind?
Answer: binds

Question: Does B28 bind?
Answer: binds

Question: Does B29 bind?
Answer: binds

Question: Does B30 bind?
Answer: binds
